The supplement of paper PMC10567573

B1: TRIM55 (parent)
chain: FQASNPYLPTRGGTTMASGGRFRC
B2: SOAT1 (parent)
chain: PSNGRIDIKQLIAKKIKLTAEAEE

Variants of: B1
Test: protein stability index of a GFP-peptide fusion (GPS, HEK-293T) (PSI 1-6); higher = more stable
Details: c terminus: a fixed tail appended
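Further: lentivirally expressed fusions sorted by FACS into six bins by GFP to DsRed ratio, PSI derived from sequencing read proportions per bin multiplied by bin number.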

Protein stability index of substitutions, site by site:
F22: K 2.61 | M 2.25 | N 2.14 | P 3.87 | Q 3.22 | R 2.13 | S 1.75 | T 1.8 | V 1.38 | W 2.51 | Y 2.47
R23: A 2.37 | C 2.9 | D 2.02 | E 1.99 | F 1.51 | G 1.6 | H 1.56 | I 1.62 | K 2.1 | L 2.98 | M 1.61 | N 1.48 | P 2.91 | Q 1.71 | S 1.8 | T 1.64 | V 1.88 | Y 2.5
C24: A 2.21 | D 2.6 | E 2.51 | F 2.23 | G 2.19 | H 2.08 | I 2.03 | K 2.47 | L 1.57 | M 1.37 | N 3.51 | P 1.41 | Q 2.22 | R 1.5 | S 1.43 | T 2 | V 1.76 | W 1.94 | Y 1.62

Variants of: B2
Test: as above
Details: c terminus: a fixed tail appended

Protein stability index of substitutions, site by site:
L11: V 3.57 | E 4.15 | I 3.17 | D 4.04 | Q 3.58 | R 3.93 | C 3.5 | W 3.67 | T 4.3 | F 3.38
P1: N 3.14 | Q 3.23 | E 2.65 | W 2.92 | M 3.1 | S 3.46 | R 3.35 | K 3.04 | G 3.33 | D 3.27 | Y 3.62 | L 3.06 | C 2.86
A20: Q 3.44 | T 3.47 | S 3.61 | V 2.8 | I 2.7 | L 3.1 | W 2.66 | D 3.16 | K 3.47 | Y 2.8
G4: F 3.56 | I 3.18 | S 3.57 | W 2.85 | H 3.36 | D 4.92 | M 3.61 | E 4.39 | C 3.33 | Q 3.57 | N 3.76 | R 3.56 | A 3.77
E24: T 3.44 | M 2.27 | K 2.98 | H 2.94 | C 3.19 | Q 2.95 | Y 2.68 | F 2.22 | N 3.07 | A 2.78
E23: Q 2.35 | R 2.74 | I 2.69 | V 2.3 | N 2.93 | S 2.51 | T 3.13 | K 3.15 | G 2.98 | M 2.06 | P 2.88 | A 2.66
Q10: S 3.1 | V 2.33 | Y 2.43 | C 3.19 | H 2.57 | I 2.18 | E 3.73 | D 3.58 | T 3.45 | N 3.21 | M 2.67 | W 2.35
D7: S 3.58 | T 2.97 | R 2.94 | G 3.02 | N 3.33 | Y 2.35 | I 3.08 | Q 3.01 | L 3.38 | E 3.4 | H 3.65
I16: W 3.18 | N 4.02 | C 3.31 | A 4.04 | L 3.22 | E 4.45 | P 3.81 | F 2.97 | M 3.51 | G 4.5 | S 3.9 | T 4.1 | R 3.65 | D 4.42
K15: P 4.22 | N 4.05 | V 2.42 | R 2.88 | F 2.47 | C 2.5 | Q 3.87 | I 2.48 | T 3.13 | E 4.52 | W 2.63 | M 3.11
K17: Y 2.84 | S 3.59 | H 3.02 | E 3.62 | Q 3.5 | R 2.99 | T 3.5 | C 3.05 | W 2.53 | G 3.55 | N 3.61 | L 3.12 | P 3.84 | M 3.1 | D 4.01 | I 2.84 | A 3.67 | V 3.38
R5: C 3.66 | K 3.68 | Q 3.13 | F 3.49 | P 4.16 | D 4.47 | S 3.75 | N 3.94 | A 3.95 | T 4 | G 4.04 | H 4
I12: Q 4.17 | P 3.7 | K 3.83 | T 3.89 | G 3.9 | R 3.85 | Y 3.19 | E 4.35 | C 3.83 | H 3.89 | V 3.48 | N 3.99 | M 3.7 | W 2.78
L18: Q 3.89 | T 3.38 | F 3.38 | M 3.27 | Y 3.13 | S 3.59 | H 3.69 | G 4.04 | W 2.9 | C 3.67
I6: G 4.1 | T 3.58 | R 3.4 | Y 3.51 | C 3.26 | W 2.91 | Q 3.76 | A 3.79 | D 4.4 | H 3.61 | S 3.46
T19: C 3.06 | V 2.75 | F 1.98 | L 2.15 | N 3.29 | D 4.18 | A 3.48 | Q 2.96 | R 2.73 | G 3.17 | I 2.12
E21: F 1.97 | L 2.96 | D 3.43 | R 2.95 | H 3.13 | N 3.13 | G 2.63 | A 2.74 | C 2.78 | Y 2.21 | K 2.51 | P 2.92 | W 2.12
S2: Q 3.63 | C 3.26 | F 2.94 | I 3.33 | N 3.61 | D 4.03 | T 3.79 | Y 2.88 | H 3.01 | L 3.09 | V 2.96 | W 2.88 | R 3.08 | P 3.35 | K 2.58
A22: S 3.26 | W 2.48 | D 4.05 | H 3.42 | T 2.82 | V 2.94 | F 2.35 | M 3 | P 3.18 | C 2.63 | Q 3.72
N3: W 3.45 | R 3.93 | C 3.86 | T 4.2 | V 3.58 | G 3.88 | I 3.87 | A 4.25 | Q 4.09 | F 3.55 | P 4.11 | E 4.27
A13: V 2.84 | C 2.82 | L 3.13 | Y 2.97 | N 3.35 | Q 3.47 | P 3.94 | I 3.3 | E 3.56
I8: N 4.01 | A 3.42 | D 4.48 | V 3.88 | Q 3.8 | R 4.06 | H 3.12 | S 3.99 | P 3.38 | Y 4.13 | C 4.06
K14: E 4.04 | A 2.88 | F 2.63 | W 3.07 | N 3.59 | V 2.98 | C 3.37 | G 3.63 | T 3.34 | Q 3.22 | L 2.24
K9: M 2.99 | N 3.66 | L 2.77 | A 3.04 | T 3.23 | G 3.39 | F 2.06 | Q 3.47 | P 3.69 | W 2.02 | R 2.74
